Patent US12594347B2, “Nanoparticulate drug delivery systems” (Duke University, priority 2018, dated 2026)
“And” between values parts separate entries of the source, which are not always exact repeats. Equal values may be shown once.

How the values were obtained:
[1] = tested on: C26 tumors; assay: Tumor regression and survival, C26 colon cancer model; format: in vivo, Balb/C mice
Protocol: (§1) Cell culture and tumor inoculation.
Tumor regression and survival. […] Tumor size and body weight were monitored over a span of two months. Tumor volume was calculated as follows: Volume [mm^3]=length×width 2×π/6. Mice with a tumor volume greater 1000 mm^3 or body weight loss greater than 15% were euthanized.

[2] = Canine serum chemistry one week after administration; format: in vivo, dogs (beagles and hounds); conditions: dogs
Text: (§2) Canine pharmacokinetics and toxicities. […] If noted, supportive care was provided.

[3] = Canine pharmacokinetics; conditions: dogs
Text: Canine pharmacokinetics and toxicities. […] All procedures and protocols involving care, handling, and dosing for this study were reviewed and approved by the Institutional Animal Care and Use Committee (IACUC) at North Carolina State University College of Veterinary Medicine, which is an AAALAC-accredited facility. The animals' health status were monitored daily by the animal technicians and veterinary staff, paying particular attention for signs of gastrointestinal toxicities including vomiting, diarrhea, lethargy, and inappetence. If noted, supportive care was provided. […] 2 mL blood samples were drawn from jugular vein at 40 s, 15 and 30 min, 2, 4, 8, 24, 48, and 72 h after injection, diluted into 400 μL heparinized PBS (1000 UmL^−1). Sample processing and analysis were performed as with murine pharmacokinetics studies.

[4] = Biodistribution in C26 tumor-bearing mice; format: in vivo, Balb/C mice; conditions: 2 h and 24 h time points
Protocol: as §1
Biodistribution. […] At 2 and 24 h after injection, tissues (tumor, muscle, heart, lung, liver, spleen and kidney) were removed, weighed and suspended in 1.0 mL acidified isopropanol (75 mM HCl, 10% water, 90% isopropanol). Tissues were then homogenized using 2 mm diameter zirconia beads and a MiniBeadbeater-1TM (Biospec; Bartlesville, OK) for 2 min at 5,000 beats per minute and were incubated overnight at 4° C. in the dark. The isopropanol extracts were then vortexed, and centrifuged (14,000 RPM, 10 min, 4° C.) and 125 uL of the supernatant was loaded onto a black 96-well plate (BD Biosciences) in duplicate. […] To correct for background tissue fluorescence, tissues were removed from three untreated control mice and were processed similarly. For each tissue, a background (counts per mg tissue) curve was created using 2-fold dilutions of the processed tissues in acidified isopropanol.

[5] = biological target: mouse serum albumin (MSA) (Mus musculus, UniProt P07724); assay: Isothermal titration calorimetry (VP-ITC) of polypeptide carriers and DOX micelles with mouse albumin; format: binding; conditions: PBS pH 7.4, 37° C.
Sequence of mouse serum albumin (MSA) (P07724 25-608): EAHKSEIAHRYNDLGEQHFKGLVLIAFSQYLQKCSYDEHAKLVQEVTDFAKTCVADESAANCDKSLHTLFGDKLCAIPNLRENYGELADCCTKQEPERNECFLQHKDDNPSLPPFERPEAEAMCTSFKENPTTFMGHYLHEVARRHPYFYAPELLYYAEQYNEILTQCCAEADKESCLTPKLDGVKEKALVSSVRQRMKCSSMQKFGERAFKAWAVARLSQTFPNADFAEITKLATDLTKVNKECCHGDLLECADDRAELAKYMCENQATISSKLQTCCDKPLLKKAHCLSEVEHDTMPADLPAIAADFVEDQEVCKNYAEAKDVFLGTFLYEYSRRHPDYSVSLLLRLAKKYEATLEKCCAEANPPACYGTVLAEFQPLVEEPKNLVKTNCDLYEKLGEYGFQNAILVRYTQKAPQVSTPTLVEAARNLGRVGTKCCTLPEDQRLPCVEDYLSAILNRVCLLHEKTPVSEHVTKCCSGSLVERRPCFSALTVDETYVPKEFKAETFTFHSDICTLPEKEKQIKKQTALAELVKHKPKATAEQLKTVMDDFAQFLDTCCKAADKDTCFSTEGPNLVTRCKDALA
Protocol: Interaction with albumin. Interaction of CP monomers and micelles with human and mouse albumin was analyzed by isothermal titration calorimetry (ITC).

[6] = Canine hematology one week after administration; format: in vivo, dogs (beagles and hounds); conditions: dogs
Text: as §2

[7] = Thermal turbidimetry (transition temperature); format: physicochemical; conditions: PBS (FIG. 8D)
Protocol: Thermal Turbidimetry. Thermal profiles of CPs and CP conjugates were determined by measuring the transition temperature (Tt) over a range of concentrations (5, 10, 25, 50, and 100 uM) in PBS, FBS, and MS using a Cary UV-visible spectrophotometer equipped with temperature controller (Agilent Technologies, CA, USA). […] The transition temperature was defined as the maximum first derivative of the optical density.

[8] = Pharmacokinetics of CP-DOX and ABDN-CP-DOX micelles in mice; format: in vivo; conditions: Balb/C mice; for Apparent distribution volume VD / Distribution half-life β t1/2 / Elimination rate constant kg / Plasma clearance CL / Plasma to tissue rate constant kpt / Tissue to plasma rate constant ktp / Area under the curve AUC / Elimination half-life α t1/2: tail vein; for Area under the curve AUC / Elimination half-life α t1/2: plasma DOX
Protocol: The isopropanol extract was then centrifuged (14,000 RPM, 10 min, 4° C.) and 125 uL of the supernatant was loaded onto a black 96-well plate (BD Biosciences) in duplicate.

[9] = one week after administration, individual subjects
[10] = cephalic vein, 27 DOX Equiv/m^−2 BSA or 0.9 mg DOX Equiv/kg BW
[11] = printed 'at the dose of 10 mg/kg BW DOX equivalent' (first statement of b160)

B1: ABDN-CP-DOX (conjugate)
chain: LAEAKVLANRELDKYGVSDYYKNLINNAKTVEGVKALIDEILAALPVPGAGVPGAGVPGAGVPGAGVPGAGVPGAGVPGAGVPGAGVPGAGVPGAGVPGAGVPGAGVPGAGVPGAGVPGAGVPGAGVPGAGVPGAGVPGAGVPGAGVPGAGVPGAGVPGAGVPGAGVPGAGVPGAGVPGAGVPGAGVPGAGVPGAGVPGAGVPGAGVPGAGVPGAGVPGAGVPGAGVPGAGVPGAGVPGAGVPGAGVPGAGVPGAGVPGAGVPGAGVPGAGVPGAGVPGAGVPGAGVPGAGVPGAGVPGAGVPGAGVPGAGVPGAGVPGAGVPGAGVPGAGVPGAGVPGAGVPGAGVPGAGVPGAGVPGAGVPGAGVPGAGVPGAGVPGAGVPGAGVPGAGVPGAGVPGAGVPGAGVPGAGVPGAGVPGAGVPGAGVPGAGVPGAGVPGAGVPGAGVPGAGVPGAGVPGAGVPGAGVPGAGVPGAGVPGAGVPGAGVPGAGVPGAGVPGAGVPGAGVPGAGVPGAGVPGAGVPGAGVPGAGVPGAGVPGAGVPGAGVPGAGVPGAGVPGAGVPGAGVPGAGVPGAGVPGAGVPGAGVPGAGVPGAGVPGAGVPGAGVPGAGVPGAGVPGAGVPGAGVPGAGVPGAGVPGAGVPGAGVPGAGVPGAGVPGAGVPGAGVPGAGVPGAGVPGAGVPGAGVPGAGVPGAGVPGAGVPGAGVPGAGVPGAGVPGAGVPGAGVPGAGVPGAGVPGAGVPGAGVPGAGVPGAGVPGAGCGGCGGCGGCGGCGGCGGCGGCGG
tumor bearing mice that survived 60 days after treatment ([1]; DOX equivalent dose of 20 mg/kg BW): 50%
tumor growth (in words) ([1]; mouse C26 colon cancer model, single treatment on day 0): significantly slower
ALT [2, 9]: 18 IU/L and 21 IU/L
AST [2, 9]: 20 IU/L and 31 IU/L
Alb/Glob Ratio [2, 9]: 1.73 and 1.57
Albumin [2, 9]: 3.8 g/dL and 3.6 g/dL
Alkaline Phosphatase [2, 9]: 26 IU/L and 31 IU/L
Amylase [2, 9]: 597 IU/L and 677 IU/L
Anion Gap [2, 9]: 21 and 20.4
Bicarbonate [2, 9]: 22 mmol/L and 21 mmol/L
Bilirubin-Total [2, 9]: <0.2 mg/dL
CK [2, 9]: 141 IU/L and 296 IU/L
Calcium [2, 9]: 10.3 mg/dL and 10.7 mg/dL
Chloride [2, 9]: 109 mmol/L and 111 mmol/L
Cholesterol [2, 9]: 153 mg/dL and 94 mg/dL
Creatinine [2, 9]: 0.7 mg/dL
GGT [2, 9]: <3 IU/L
Globulin [2, 9]: 2.2 g/dL and 2.3 g/dL
Glucose [2, 9]: 90 mg/dL and 82 mg/dL
Lipase [2, 9]: 57 IU/L
Magnesium [2, 9]: 1.9 mg/dL and 2.2 mg/dL
Na/K Ratio [2, 9]: 37 and 33.6
Osomolality-Calc. [2, 9]: 293.8 mOsm/kg and 293.4 mOsm/kg
Phosphorus [2, 9]: 4.1 mg/dL and 4.7 mg/dL
Potassium [2, 9]: 4 mmol/L and 4.4 mmol/L
Protein-Total [2, 9]: 6 g/dL and 5.9 g/dL
Sodium [2, 9]: 148 mmol/L
Urea Nitrogen [2, 9]: 17 mg/dL and 15 mg/dL
abnormalities in blood serum chemistry (in words) ([2]; one week after infusion): no hematology or serum chemistry abnormalities
AUC, fold larger than that of CP-DOX [3]: six-fold
plasma half-life, fold greater than that of CP-DOX [3]: three-fold
Apparent distribution volume VD [3, 10]: 0.02 ± 0.00 mL/g
Distribution half-life β t1/2 [3, 10]: 102.3 ± 49.3 min
Elimination rate constant kg [3, 10]: 0.02 ± 0.00 h⁻¹
Plasma clearance CL [3, 10]: 0.0003 ± 0.0000 mL/h/g
Plasma to tissue rate constant kpt [3, 10]: 0.06 ± 0.03 h⁻¹
Tissue to plasma rate constant ktp [3, 10]: 0.34 ± 0.17 h⁻¹
Elimination half-life α t1/2 ([3]; cephalic vein, 27 DOX Equiv/m^−2 BSA or 0.9 mg DOX Equiv/kg BW, plasma DOX): 30.8 ± 2.0 h
distribution to organs of the reticuloendothelial system i.e. liver and spleen (in words) [4]: significantly smaller than that of CP-DOX micelles
binding stoichiometry N [5]: 1.01±0.00
Abonormal Lymphs [6, 9]: 0.157 10^3/μL and 0.561 10^3/μL
Hematocrit [6, 9]: 42.7% and 43.9%
Hemoglobin [6, 9]: 14.7 g/dL and 14.6 g/dL
Lymphocytes [6, 9]: 1.572 10^3/μL and 1.122 10^3/μL
MCH [6, 9]: 24.6 pg and 23.6 pg
MCHC [6, 9]: 34.3 g/dL and 33.2 g/dL
MCV [6, 9]: 71.7 fL and 71 fL
MPV [6, 9]: 12.2 fL and 11.9 fL
Monocytes [6, 9]: 0.314 10^3/μL and 0.21 10^3/μL
PCT [6, 9]: 0.28% and 0.25%
Packed Cell-Volume [6, 9]: 42%
Plasma Protein [6, 9]: 6.2 g/dL and 5.8 g/dL
Platelets [6, 9]: 228 X10^3/μL and 208 X10^3/μL
RBC [6, 9]: 5.97 X10^6/μL and 6.19 X10^6/μL
RDW [6, 9]: 12.8% and 11.7%
Reticulocyte # [6, 9]: 0.025 X10^6/μL and 0.014 X10^6/μL
Reticulocyte % [6, 9]: 0.43% and 0.23%
Reticulocyte Absolute [6, 9]: 25000 µL⁻¹ and 14000 µL⁻¹
Segmented Neutrophils [6, 9]: 5.502 10^3/μL and 4.276 10^3/μL
WBC [6, 9]: 7.86 X10^3/μL and 7.01 X10^3/μL
abnormalities in blood hematology (in words) ([6]; one week after infusion): no hematology or serum chemistry abnormalities
transition temperature after drug (DOX) conjugation [7]: 44 °C
Apparent distribution volume VD ([8]; 10 mg/kg BW DOX equivalent): 0.34 ± 0.01 mL/g
Distribution half-life β t1/2 ([8]; 10 mg/kg BW DOX equivalent): 12.4 ± 1.4 min
Elimination rate constant kg ([8]; 10 mg/kg BW DOX equivalent): 0.10 ± 0.01 h⁻¹
Plasma clearance CL ([8]; 10 mg/kg BW DOX equivalent): 0.013 ± 0.000 mL/h/g
Plasma to tissue rate constant kpt ([8]; 10 mg/kg BW DOX equivalent): 2.08 ± 0.27 h⁻¹
Tissue to plasma rate constant ktp ([8]; 10 mg/kg BW DOX equivalent): 1.22 ± 0.13 h⁻¹
Area under the curve AUC ([8]; 10 mg/kg BW DOX equivalent): 1400.4 ± 34.2 µM·h
Elimination half-life α t1/2 ([8]; 10 mg/kg BW DOX equivalent): 18.3 ± 0.6 h
Apparent distribution volume VD ([8]; 20 mg/kg BW DOX equivalent): 0.25 ± 0.11 mL/g
Distribution half-life β t1/2 ([8]; 20 mg/kg BW DOX equivalent): 71.7 ± 17.5 min
Elimination rate constant kg ([8]; 20 mg/kg BW DOX equivalent): 0.08 ± 0.00 h⁻¹
Plasma clearance CL ([8]; 20 mg/kg BW DOX equivalent): 0.011 ± 0.000 mL/h/g
Plasma to tissue rate constant kpt ([8]; 20 mg/kg BW DOX equivalent): 0.25 ± 0.07 h⁻¹
Tissue to plasma rate constant ktp ([8]; 20 mg/kg BW DOX equivalent): 0.29 ± 0.07 h⁻¹
Area under the curve AUC ([8]; 20 mg/kg BW DOX equivalent): 3328.5 ± 100.3 µM·h
Elimination half-life α t1/2 ([8]; 20 mg/kg BW DOX equivalent): 17.5 ± 0.8 h
linearity of pharmacokinetics (in words) ([8]; 10 vs 20 mg/kg BW DOX equivalent): linear pharmacokinetics
bioavailability i.e. AUC [8, 11]: 3328.5 ± 100.3 µM·h
half-life [8, 11]: 17.5 ± 0.8 h
